In patent publication US20240254220A1 (CENTRICSBIO, published 2024):

Columns and labels:
[1] = target: T1, CD300c on the surface of cells (human, UniProt Q08708 21-224); assay: flow cytometry (FACS binding) on THP-1 cells overexpressing CD300c, FITC anti-human IgG (H+L), MFI
T1 construct: whole, on cells; also called cellular antigen
T1 sequence (looked up): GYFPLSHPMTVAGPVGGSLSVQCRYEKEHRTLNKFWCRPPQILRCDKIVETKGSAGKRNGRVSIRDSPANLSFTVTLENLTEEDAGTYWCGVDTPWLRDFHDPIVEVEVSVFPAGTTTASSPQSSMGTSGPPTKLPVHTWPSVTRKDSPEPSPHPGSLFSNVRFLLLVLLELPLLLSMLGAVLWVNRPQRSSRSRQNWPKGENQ
Procedure: (§1) In order to identify whether the anti-CD300c monoclonal antibody (CL7) recognizes a cellular antigen, FACS binding was performed.
(§2) Then, the cells were incubated with the anti-CD300c monoclonal antibody, which was serially diluted 3-fold starting from 10 μg/mL, in a CO₂ incubator for 30 minutes, and washed twice with FACS buffer. Then, the cells were incubated with FITC-conjugated anti-human IgG (H+L), which was diluted 1:100 in FACS buffer, in a CO₂ incubator for 30 minutes, and washed twice with FACS buffer. Subsequently, FITC signals were measured with a CytoFLEX instrument manufactured by Beckman Coulter, Inc., and then the MFI values were obtained using CytExpert program.

[2] = target: T1, CD300c on the surface of cells; assay: flow cytometry (FACS binding) on 293T cells overexpressing CD300c, FITC anti-human IgG (H+L), MFI
Procedure: as §1, §2

[3] = target: PD-L1 [B7-H1] (Sino Biological) (UniProt Q9NZQ7 19-239); assay: binding ELISA on coated antigen (8 µg/mL), HRP anti-Fc detection, 450 nm (Experimental Example 2.5)
Procedure: (§3) In order to identify that the anti-CD300c monoclonal antibody CL7 specifically binds only to CD300c without binding to other B7 family proteins, binding ELISA was performed. More specifically, each of CD300c antigen, CD300a antigen, or seven B7 family protein antigens (PD-L1 [B7-H1] (Sino Biological), ICOS Ligand[B7-H2] (Sino Biological), CD276[B7-H3] (Sino Biological), B7-H4 (Sino Biological), CD80[B7-1] (Sino Biological), CD86[B7-2] (Sino Biological), CD273[PD-L2] (Sino Biological)) in a coating buffer (0.1 M sodium carbonate, pH 9.0) was coated on an ELISA plate at a concentration of 8 μg/mL per well, and then bound to the plate by incubation at 2° C. to 8° C. overnight. The unbound antigen was removed by washing with PBST three times, and then […] of blocking buffer (5% skim milk in PBST) was added to each well. Subsequently, blocking was performed at room temperature for 1 hour, followed by washing again with PBST. Thereafter, CL7 was diluted in quadruplicate with PBS, incubated with the antigen at room temperature for 1 hour for antigen binding 1 hour later, and washed three times with PBST. Then, a secondary antibody (HRP-conjugated anti-Fc IgG) diluted to 4 μg/mL in blocking buffer was added thereto, followed by incubation at room temperature for 1 hour. Subsequently, the unbound antibody for detection was removed using PBST, and then a TMB solution was added thereto, followed by incubation for 10 minutes for development. Then, 2 N sulfuric acid solution was added to terminate the development reaction, and the absorbance was measured at 450 nm to identify the antibody specifically binding to the CD300c antigen.

[4] = target: T2, CD300a antigen (12449-H08H, Sino Biological) (UniProt Q9UGN4 18-178); assay: as above
T2 sequence (looked up): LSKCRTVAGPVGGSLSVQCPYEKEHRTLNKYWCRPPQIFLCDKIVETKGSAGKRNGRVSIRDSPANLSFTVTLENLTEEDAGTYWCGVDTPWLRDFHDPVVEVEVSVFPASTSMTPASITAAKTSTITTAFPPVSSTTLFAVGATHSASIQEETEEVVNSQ
Procedure: as §3

[5] = target: T3, CD86[B7-2] (Sino Biological) (UniProt P42081 24-245, limits assumed); assay: as above
T3 sequence (looked up): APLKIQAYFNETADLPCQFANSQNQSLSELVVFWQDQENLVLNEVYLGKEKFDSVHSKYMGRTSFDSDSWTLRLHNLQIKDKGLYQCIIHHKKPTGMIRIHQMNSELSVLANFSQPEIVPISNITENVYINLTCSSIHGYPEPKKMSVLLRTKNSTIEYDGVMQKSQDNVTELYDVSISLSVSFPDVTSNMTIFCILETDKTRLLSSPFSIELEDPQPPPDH
Procedure: as §3

[6] = target: T4, CD300c antigen (11832-H08H, Sino Biological) (human, UniProt Q08708 21-183); assay: binding ELISA, plate coated with CD300c antigen (8 µg/mL), HRP anti-Fc IgG detection
T4 construct: Bought antigen; also called CD300c protein; CD300 antigen-like family member C
T4 sequence (looked up): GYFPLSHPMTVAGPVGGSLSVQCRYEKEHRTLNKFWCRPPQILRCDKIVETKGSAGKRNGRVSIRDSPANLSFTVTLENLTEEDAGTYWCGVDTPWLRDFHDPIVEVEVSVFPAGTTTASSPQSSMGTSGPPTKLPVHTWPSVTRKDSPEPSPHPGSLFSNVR
Procedure: In order to identify the antigen-binding ability of the anti-CD300c monoclonal antibodies produced in Example 1, binding ELISA was performed. Specifically, a CD300c antigen (11832-H08H, Sino Biological) or a CD300a antigen (12449-H08H, Sino Biological) in a coating buffer (0.1 M sodium carbonate, pH 9.0) was dispensed into an ELISA plate at a concentration of 8 μg/mL per well, followed by incubation at room temperature for 3 hours to allow the antigen to be bound to the plate. The unbound antigens were removed by washing three times using phosphate buffered saline-Tween 20 (PBST), and then 300 μL of PBST supplemented with 5% bovine serum albumin (BSA) was added to each well, followed by incubation at room temperature for 1 hour and then washing using PBST. Then, an anti-CD300c monoclonal antibody was diluted in quadruplicate and added thereto, followed by incubation for 1 hour at room temperature for antigen binding. After 1 hour, washing was performed three times using PBST to remove unbound anti-CD300c monoclonal antibody, and then 4 μg/mL of an antibody for detection (HRP conjugated anti-Fc IgG) was added, followed by incubation again at room temperature for 1 hour. Subsequently, the unbound antibody for detection was removed using PBST, and then TMB solution was added, followed by incubation for 10 minutes for development. Then, 2 N sulfuric acid solution was added to terminate the development reaction, and the absorbance was measured at 450 nm to identify the antibodies specifically binding to the CD300c antigen.

Chain of PD-L1 [B7-H1] (Sino Biological) (Q9NZQ7 19-239 limits assumed): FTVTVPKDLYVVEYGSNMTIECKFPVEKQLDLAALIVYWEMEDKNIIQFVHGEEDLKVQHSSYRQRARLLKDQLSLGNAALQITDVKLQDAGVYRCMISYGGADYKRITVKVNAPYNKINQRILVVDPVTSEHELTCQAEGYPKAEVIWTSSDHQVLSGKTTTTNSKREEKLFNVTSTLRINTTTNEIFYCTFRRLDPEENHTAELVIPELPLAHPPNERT

B1: CL7 (antibody, V domains shown)
VH: EVQLLESGGGLVQPGGSLRLSCAASGFTFSRYAMSWVRQAPGKGLEWVSAISGSGGSTYYADSVKGRFTISRDNSKNTLYLQMNSLRAEDTAVYYCARSSQGIFDIWGQGTLVTVSS
VL: QSVLTQPPSASGTPGQRVTISCSGNNIGTRRVHWYQQLPDTAPKLLIYSKNNRPSGVPDRFSGSKSGTSASLAISGLRSEDEADYYCAAWDDSLSGPVFGGGTKLTVL
notes: detected with anti-human IgG (H+L) and anti-Fc IgG; also called anti-CD300c monoclonal antibody CL7; anti-CD300c monoclonal antibody (CL7)
EC50 [1]: 2.6 nM | EC50 [2]: 2.7 nM | binding result [3]: no binding (tested: log10 about 0.4 ug/ml (about 2.5 ug/ml)) | binding result [4]: no binding (tested: log10 about 0.4 ug/ml (about 2.5 ug/ml)) | binding result [5]: no binding (tested: log10 about 0.4 ug/ml (about 2.5 ug/ml)) | EC50 [6]: 0.047 µg/mL
